The target of experiment [1] is T1, recombinant human CHI3L1 (human, UniProt P36222 22-383).
T1 construct: also called rCHI3L1; human rCHI3L1
Kind of experiment: phage ELISA (3rd round single clone screening): coated protein, rescued phage supernatant, anti-M13-HRP, OD450. In general terms: An ELISA detects its analyte on a solid surface through an enzyme-linked reagent.

In experiment [2] the target is T2, mouse rCHI3L1 (mouse, UniProt Q61362 30-389, limits assumed).
T2 construct: also called mouse CHI3L1; murine CHI3L1
The description is as above.

T2 sequence (Q61362 30-389 limits assumed): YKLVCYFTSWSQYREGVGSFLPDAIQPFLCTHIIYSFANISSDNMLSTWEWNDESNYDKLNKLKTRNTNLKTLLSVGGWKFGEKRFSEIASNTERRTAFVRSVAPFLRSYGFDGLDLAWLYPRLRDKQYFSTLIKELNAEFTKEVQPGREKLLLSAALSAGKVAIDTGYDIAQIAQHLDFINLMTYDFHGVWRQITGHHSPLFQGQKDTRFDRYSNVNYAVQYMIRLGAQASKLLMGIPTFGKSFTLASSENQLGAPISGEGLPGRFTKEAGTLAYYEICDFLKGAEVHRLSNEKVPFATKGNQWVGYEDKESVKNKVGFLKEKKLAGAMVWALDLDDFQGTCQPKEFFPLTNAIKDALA
T1 sequence (P36222 22-383 limits assumed): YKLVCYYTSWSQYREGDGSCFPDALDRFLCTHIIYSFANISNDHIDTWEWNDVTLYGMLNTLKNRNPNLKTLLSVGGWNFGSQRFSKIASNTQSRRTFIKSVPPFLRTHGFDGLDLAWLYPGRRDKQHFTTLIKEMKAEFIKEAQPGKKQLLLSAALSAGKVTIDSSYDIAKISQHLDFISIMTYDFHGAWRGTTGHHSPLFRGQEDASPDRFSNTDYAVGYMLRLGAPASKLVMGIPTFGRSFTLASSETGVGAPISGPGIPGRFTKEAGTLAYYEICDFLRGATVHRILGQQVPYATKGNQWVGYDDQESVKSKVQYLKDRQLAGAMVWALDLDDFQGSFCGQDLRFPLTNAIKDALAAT

B1: anti-CHI3L1 clone 293R3-5 (antibody, human IgG1, V domains shown)
VH: EVQLVQSGAGVKKPGATVKISCKVSGYTFTDYYMHWVQQAPGKGLEWMGLVDPEDGETIYAEKFQGRVTITADTSTDTAYMELSSLRSEDTAVYYCATASPREEMPYYFDYWGQGTLVTVSS
VL: SYELTQPPSVSVSPGQTASITCSGDILADQYASWYQQKPGQSPVLVIYHDTKRPSGVPERFSGSTSGNTATLTISGTQAMDEAAYYCQAWDINTAWVFGGGTQLTVLG
notes: also called #hu 293R3-5
Regarding B1, the binding result in experiment [1] is listed as “binds”; in experiment [2], “no binding”.

Source of the values: patent publication US20240400717A1 (NATIONAL CHENG KUNG UNIVERSITY, published 2024).
